Reference: the supplement of paper PMC10567573
± gives the standard deviation.

Assay: protein stability index of a GFP-peptide fusion (GPS, HEK-293T) (PSI 1-6); higher = more stable
[1] = treatment: DMSO, c terminus: a fixed tail appended
[2] = treatment: MLN4924 1 uM, 8 h, c terminus: a fixed tail appended
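Also: 24-mer peptide tiles fused after GFP, lentivirally expressed, FACS-sorted into six equal bins by GFP/DsRed ratio, decoded by Illumina sequencing, PSI is the read-weighted mean bin number.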

Row | Sequence | protein stability index [1] | protein stability index [2] | protein stability index (treatment: DMSO, c terminus: native) | protein stability index (treatment: MLN4924 1 uM, 8 h, c terminus: native)
1 | LCLACSAGYYELAQVLLAMHANVE [ANKRD17] | 2.96 ± 0.48 | 2.56 ± 0.25 |  | 
2 | VDAGAEPGRSRMISQEEFARQLQL [LPCAT4] | 4.52 ± 0.27 | 4.5 ± 0.15 |  | 
3 | TPNSKYVKLNVGGSLHYTTLRTLT [KCTD13] | 2.23 ± 0.15 | 2.02 ± 0.25 |  | 
4 | PDDRLTCSQLLESSYFDSFQEAQI [CDKL4] | 3.91 ± 0.43 | 4.08 ± 0.12 |  | 
5 | EQVFNAVMAWVKYSIQERRPQLPQ [KLHL20] | 2.75 ± 0.67 | 2.35 ± 0.68 |  | 
6 | KVTRLKSLALDIDRDAEDQNRYLD [BET1L] | 4.44 ± 0.17 | 4.6 ± 0.18 |  | 
7 | GGLQHRVTAKTAPDVLRTKPAFIG [PTPRD] | 3.44 ± 0.5 | 3.07 ± 0.34 |  | 
8 | PEPVYFHCAAVTPAGCMYIHGGVV [KLHDC10] | 2.53 ± 0.56 | 2.85 ± 0.71 |  | 
9 | RSHENKLRQLTAELAEHRCHPVER [PSD2] | 3.84 ± 0.18 | 4.02 ± 0.14 |  | 
10 | VEASCSVCLEYLKEPVIIECGHNF [TRIM39] | 2.07 ± 0.39 | 2.25 ± 0.21 |  | 
11 | RPEEEEDELAHRCSSFMAPPVTDL [CPOX] | 5.05 ± 0.26 | 5.03 ± 0.18 |  | 
12 | DEKYGVPSLEELGFDTDGLSSAVW [CRY1] | 3.65 ± 0.22 | 3.86 ± 0.45 |  | 
13 | RVNEKEIVRLRTIGELLAPAAPFD [WSB1] | 3.44 ± 0.2 | 3.5 ± 0.21 |  | 
14 | DWGRTALHYAAASDMDRNKTILGN [ANKRD44] | 3.35 ± 0.32 | 3.35 ± 0.17 |  | 
15 | NCEQLCVNVPGSFVCQCYSGYALA [MATN2] | 2.16 ± 0.55 | 2.34 ± 0.53 |  | 
16 | RQVEKRRNSGPVVEKLKQMQEFFG [MMP1] | 3.04 ± 0.57 | 3.07 ± 0.14 |  | 
17 | PVQASQLEEEFDSDSGLSLDSSHS [NFE2L1] | 5.51 ± 0.11 | 5.46 ± 0.22 |  | 
18 | SALTDRTSRAPSTYTYTSRPRALP [RSPH3] | 4.01 ± 0.26 | 3.7 ± 0.29 |  | 
19 | EVSLDSLDLRVKGILSSQAEGLAN [EHMT1] | 4.18 ± 0.19 | 4.05 ± 0.42 |  | 
20 | ELDLRLRLAQPSSPEVLTPQLSPG [RTN2] | 4.23 ± 0.24 | 4.22 ± 0.15 |  | 
21 | YLGLVRTHINAVVAKIQAKIPGAK [RTN1] | 2.35 ± 0.29 | 2.06 ± 0.54 |  | 
22 | NGLNARMMHGGSYSLTTSSTHKRS [RAB40B] | 4.28 ± 0.12 | 4.34 ± 0.19 |  | 
23 | VSLGLGQPWHAVMDIESLSVFTEP [FBXO33] | 2.31 ± 0.56 | 1.99 ± 0.26 |  | 

Row | Sequence | protein stability index [1] | protein stability index [2] | protein stability index (treatment: DMSO, c terminus: native) | protein stability index (treatment: MLN4924 1 uM, 8 h, c terminus: native)
24 | CKVDCEANLTPNVGGYFVDKFVAT [P3H4] | 2.84 ± 0.23 | 2.55 ± 0.29 |  | 
25 | VVKYRRPMDVYETGIEYIVAQGPT [ADAMTSL2] | 2.13 ± 0.5 | 2.25 ± 0.46 |  | 
26 | LECEINTYRSLLESEDCKLPSNPC [KRT33B] | 4.07 ± 0.11 | 4.25 ± 0.23 |  | 
27 | VLGTKVDAERDGVKVPTTLAEYCV [CDC34] | 4.073 ± 0.014 | 4.07 ± 0.12 |  | 
28 | PPELNYGATGECQNFLDPGYPLPK [ZNF449] | 4.61 ± 0.2 | 4.67 ± 0.13 |  | 
29 | TEPSGRVAKKTPTKRSTLIISGVS [C2CD2L] | 3.76 ± 0.27 | 3.92 ± 0.34 |  | 
30 | PDLRSLFSRAGISEAQLTDAETSK [WAS] | 5.03 ± 0.28 | 5 ± 0.27 |  | 
31 | NHLLHHFVIGHLKGAPASWWNHMH [FADS1] | 2.36 ± 0.56 | 2.31 ± 0.34 |  | 
32 | LRHLELLDEFARENIDSLYNVNLS [SCNN1D] | 2.66 ± 0.092 | 2.94 ± 0.34 |  | 
33 | ISEKLTLLPTLYEIHSKTTAYSRL [RNF180] | 2.51 ± 0.29 | 2.06 ± 0.085 |  | 
34 | EAPASVVPFVRVKREREVDEDSEP [USP39] | 5.51 ± 0.17 | 5.51 ± 0.2 |  | 
35 | MDVSREEAPQWLESDSCQKCEQPF [WDFY1] | 4.89 ± 0.17 | 4.92 ± 0.32 |  | 
36 | QDFAKDLLKTLYNSIKNEKLEWAI [PSD2] | 2.32 ± 0.47 | 2.23 ± 0.25 |  | 
37 | REQLQAEASERFAAGYIQCMHEVH [HES6] | 3.62 ± 0.37 | 3.77 ± 0.22 |  | 
38 | KLAIIPGGGGTQRLPRAIGMSLAK [AUH] | 2.79 ± 0.05 | 2.88 ± 0.52 |  | 
39 | WKERDEYITKVSEEVTRLGAQVKE [TRIM15] | 4.69 ± 0.23 | 4.22 ± 0.42 |  | 
40 | LEGVVSQIDAVGSKLKMLERKGWL [PKD2L1] | 2.63 ± 0.37 | 2.77 ± 0.24 |  | 
41 | SDSAPRNKISRFQAPISAPEYTYG [MFF] | 3.59 ± 0.71 | 3.56 ± 0.21 |  | 
42 | LREINFKIVEFNPMVLKGKIRPDS [GLT8D2] | 2.39 ± 0.34 | 2.41 ± 0.41 |  | 
43 | TVIFYGADSEQADIARMLYKDTCH [ZMYND11] | 2.28 ± 0.17 | 2.68 ± 0.4 |  | 
44 | LVPFVGKVHIGYLPNKQVLGLSKL [GCH1] | 2.78 ± 0.19 | 2.06 ± 0.37 |  | 
45 | DAMQLNDKWQGLCWPMMDFLRCVT [CMTM3] | 2.22 ± 0.38 | 2.26 ± 0.14 |  | 
46 | NFIREQDLYALKSVKIPVRNHGIL [LYSMD4] | 2.27 ± 0.076 | 2.35 ± 0.37 |  | 

Row | Sequence | protein stability index [1] | protein stability index [2] | protein stability index (treatment: DMSO, c terminus: native) | protein stability index (treatment: MLN4924 1 uM, 8 h, c terminus: native)
47 | VAGILSLLLGTAYSFYLFHPLAYG [POMT2] | 3.16 ± 0.24 | 2.98 ± 0.3 |  | 
48 | TKPLAIHPCGDKNCPAHWLAQDWE [ADAMTSL2] | 2.73 ± 0.79 | 2.73 ± 0.12 |  | 
49 | DYRMELAQAGTPAPTKPHDYRQEQ [SPAG8] | 5.11 ± 0.088 | 5.16 ± 0.14 |  | 
50 | RKLFEVESVTHHDYRMELAQAGTP [SPAG8] | 3.64 ± 0.33 | 3.57 ± 0.21 |  | 
51 | SSFFQQFFHCYCPVGFGRRTDPNG [CRY1] | 2.42 ± 0.52 | 2.11 ± 0.27 |  | 
52 | STCFTELQRDFLKQRPTKLKSLIR [OAS1] | 2.6 ± 0.17 | 2.66 ± 0.14 |  | 
53 | FTLNFFRSGIQFGSWGSFQLPGLL [CLCN6] | 2.93 ± 0.36 | 3.02 ± 0.97 |  | 
54 | SNLLKAGFIRHTVNKITFSEQCYY [DVL3] | 2.3 ± 0.39 | 2.39 ± 0.3 |  | 
55 | GCLKMNPDDRLTCSQLLESSYFDS [CDKL4] | 3.4 ± 0.45 | 3.54 ± 0.21 |  | 
56 | NQRAMDLYKALGAQDLTEAEGWHF [SAT2] | 3.28 ± 0.25 | 3.14 ± 0.28 |  | 
57 | SEWQRKLEAAEALLTLRNSAQAPP [DMRTC1] | 4.45 ± 0.55 | 4.63 ± 0.26 |  | 
58 | CCEVETIRRAYPDANLLNDRVLRA [CCND1] | 2.86 ± 0.42 | 2.95 ± 0.23 |  | 
59 | IDEYCVQQLKEFDGKSLVSVTKEG [HSP90AB1] | 5.19 ± 0.25 | 4.99 ± 0.14 |  | 
60 | LADSDTLSSAEENEPSQAETAVEG [C18orf25] | 5.55 ± 0.33 | 5.54 ± 0.16 |  | 
61 | ATTIDNSRVILEIDNARLAADDFR [KRT15] | 3.7 ± 0.31 | 3.74 ± 0.3 |  | 
62 | AVLASCSQYFRSLFSSHPPLGGGV [KLHL14] | 2.4 ± 0.37 | 2.22 ± 0.22 |  | 
63 | HDHLTLSVSRPEGRSWPSAPDDSK [PDLIM4] | 5.15 ± 0.093 | 5.06 ± 0.072 |  | 
64 | LEEGENPVPAFQSDGTDEPESKEP [SMG5] | 5.65 ± 0.24 | 5.65 ± 0.2 |  | 
65 | EEVVYDLSIRGFNKETAAACVEK [TSN] |  |  | 4.39 ± 0.14 | 4.38 ± 0.27
66 | NPQENRWHTIAPMGTRRKHLGCAV [KLHL20] | 3.1 ± 0.13 | 3.11 ± 0.095 |  | 
67 | SEMKKCSDYESIEVPDSYTGPRLS [PPEF2] | 4.58 ± 0.35 | 4.53 ± 0.11 |  | 
68 | GGARSLWRGNGINVLKIAPESAIK [SLC25A25] | 3.29 ± 0.45 | 3.19 ± 0.47 |  | 
69 | VFGFIAAYVLSKYQYFVCPVEYRS [CDS1] | 3.38 ± 0.39 | 3.15 ± 0.27 |  | 

Row | Sequence | protein stability index [1] | protein stability index [2] | protein stability index (treatment: DMSO, c terminus: native) | protein stability index (treatment: MLN4924 1 uM, 8 h, c terminus: native)
70 | PAVTPDPWGVQGGQESEVPYKREE [PKD2L1] | 5.24 ± 0.33 | 5.49 ± 0.16 |  | 
71 | EAEEEKGEKEEEDKDDEEKPKIED [HSP90AB1] | 5.55 ± 0.35 | 5.6 ± 0.38 |  | 
72 | LEEEFDSDSGLSLDSSHSPSSLSS [NFE2L1] | 5.251 ± 0.052 | 5.22 ± 0.12 |  | 
73 | SQIHNNGQSDFRPKNGRHAWIWHD [LOXL2] | 3.31 ± 0.35 | 3.22 ± 0.22 |  | 
74 | MDGESEEEQESVDTGEEEEGGDES [EHMT1] | 5.66 ± 0.15 | 5.51 ± 0.16 |  | 
75 | QVKSRQNKTNKNSVSSCDQEHQSA [SMOC2] | 5.1 ± 0.32 | 5.34 ± 0.16 |  | 
76 | CLVCQASFCELHLKPHLEGAAFRD [TRIM29] | 3.68 ± 0.32 | 3.67 ± 0.43 |  | 
77 | LREIAFTRQLHEKTSQLSYYYMGF [ATE1] | 2.31 ± 0.35 | 2.34 ± 0.24 |  | 
78 | ERRHREEKERRKKQQWEIMHKHNE [RSPH3] | 4.8 ± 0.23 | 4.65 ± 0.28 |  | 
79 | TNLPKGACALLLTSVDHDRAPVVG [DLC1] | 2.97 ± 0.17 | 2.85 ± 0.3 |  | 
80 | GLDYLHSKCKIIHTDIKPENILMC [SRPK2] | 2.06 ± 0.22 | 1.9 ± 0.35 |  | 
81 | SYQKPKEVVVAESELQKELKKVKT [DPCD] | 4.95 ± 0.36 | 5.25 ± 0.31 |  | 
82 | SWLEENVHEVLQAVDAGDPAVEAC [TCF25] | 4.86 ± 0.14 | 4.84 ± 0.32 |  | 
83 | SRARSASSPRGMVRVCDLLLKKKP [ANKRD17] | 3.61 ± 0.39 | 3.51 ± 0.4 |  | 
84 | SFRELLTFFCTNATIHGAIRLVCS [SCNN1D] | 2.85 ± 0.36 | 2.99 ± 0.39 |  | 
85 | SSPSNMLPVRPQTNALIGGPMPMS [CLINT1] | 3.85 ± 0.22 | 3.7 ± 0.25 |  | 
86 | DPDINMHPFFFALGKILSVELGKQ [FADS1] | 2.46 ± 0.61 | 2.38 ± 0.59 |  | 
87 | AACLLQLKGVKQACCEFLESQLDP [KLHL12] | 2.97 ± 0.45 | 2.88 ± 0.33 |  | 
88 | QSSGLIRHQRIHTGERPYECNECG [ZSCAN9] | 4.03 ± 0.36 | 4 ± 0.49 |  | 
89 | VLRGLARPEHPPPAPTGQDDPQSQ [TMEM175] | 5.39 ± 0.45 | 5.54 ± 0.22 |  | 
